Results: patent US20230056815A1

Key:
Assay in all cases: cell-based or functional assay
[1] = target: mouse soluble FLT3L (mouse) (UniProt P49772)
[2] = target: human soluble FLT3L (recombinant huFLT3L) (human) (UniProt P49771)
[3] = target: cynomolgus monkey soluble FLT3L (cynomolgus monkey)

Sequence of human soluble FLT3L (recombinant huFLT3L) (human) (P49771 27-184): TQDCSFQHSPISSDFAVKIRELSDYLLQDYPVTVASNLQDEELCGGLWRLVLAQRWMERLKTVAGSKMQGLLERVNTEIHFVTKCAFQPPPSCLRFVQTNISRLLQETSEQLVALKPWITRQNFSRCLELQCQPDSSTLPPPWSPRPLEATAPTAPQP
Sequence of mouse soluble FLT3L (mouse) (P49772 27-189): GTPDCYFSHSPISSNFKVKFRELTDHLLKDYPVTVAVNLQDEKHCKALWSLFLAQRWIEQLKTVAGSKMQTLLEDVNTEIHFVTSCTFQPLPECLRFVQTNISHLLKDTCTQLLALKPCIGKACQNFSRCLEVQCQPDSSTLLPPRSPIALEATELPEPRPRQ

IC50 (nM), inhibition of FLT3 downregulation on RS4;11 cells [1]: 0.12 nM | IC50 (nM) against 0.476 nM FLT3L, ERK phosphorylation in CD133+ stem cells [2]: 0.19 nM | IC50 (nM) against 0.476 nM FLT3L, MEK phosphorylation in CD133+ stem cells [2]: 0.19 nM | IC50 (nM), inhibition of FLT3 downregulation on RS4;11 cells [2]: 0.04 nM | IC50 (nM), inhibition of FLT3 downregulation on RS4;11 cells [3]: 0.1 nM
Substance: commercially available mouse anti-human FLT3L monoclonal antibody (MAB608, R&D Systems)
